We go through two molecules from US9809653B2, “Anti-LAMP1 antibodies and antibody drug conjugates, and uses thereof” (SANOFI, priority 2012, dated 2017).

Test [1] relates to hybrid between murine and human LAMP1 domains. Nature of the test: Epitope ELISA on human/mouse hybrid LAMP1 extracellular domains. Type of test: binding. An excerpt: The high level of glycosylation of the antigen required a specific approach to determine the binding site of the anti-LAMP1 mAbs on LAMP1. […] This absence of binding was used to design several chimeric LAMP1 proteins in which one or several of the LAMP1 domains (Loop1-Loop4) in the human construct were replaced by the murine counterpart. The absence of binding once the binding site of the antibody was replaced by the murine counterpart allowed for identification of the antibody binding side.
Background: ELISA stands for enzyme-linked immunosorbent assay.

Test [2] concerns the target T1, Hybrid LAMP1 / glycan-deleted LAMP1 transmembrane proteins (Mus musculus, UniProt P11438, E181G/G176S/K180R/N177S/S175N).
T1 construct: expressed in transfected cells; host or cells: 293-F (HEK293-derived), transient transfection
T1 sequence (P11438 with tags, fused parts or gaps S175N/G176S/N177S/K180R/E181G): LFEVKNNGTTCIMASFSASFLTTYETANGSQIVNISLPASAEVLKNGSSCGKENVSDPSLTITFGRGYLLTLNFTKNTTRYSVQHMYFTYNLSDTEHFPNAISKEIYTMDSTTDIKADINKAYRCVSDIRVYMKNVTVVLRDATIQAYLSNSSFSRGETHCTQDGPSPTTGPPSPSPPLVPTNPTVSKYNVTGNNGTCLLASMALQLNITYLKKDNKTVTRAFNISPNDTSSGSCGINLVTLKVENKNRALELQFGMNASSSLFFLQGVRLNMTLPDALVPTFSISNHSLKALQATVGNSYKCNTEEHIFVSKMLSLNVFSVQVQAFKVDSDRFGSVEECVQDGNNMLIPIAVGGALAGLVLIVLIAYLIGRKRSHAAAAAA
Kind of test: Binding onto membrane-anchored hybrid or mutated LAMP1 proteins (293-F cells) by flow cytometry. Also on record: species or system human/mouse. The settings on record: pXL6048 mLAMP1_hseq11_ΔGYQTI. The protocol:
(§1) Different LAMP1 proteins were expressed at the cell membrane of HEK293 cells after transient expression from mammalian plasmids encoding the entire coding sequence of LAMP1 deleted of the intracellular lysosome-targeting motif GYQTI and substituted by a 5-Ala repeat sequence.
(§2) Two days post transfection cells were processed, analyzed by flow cytometry (Guava® easyCyte™ 8HT) as mentioned in example 4.7, and the mean fluorescence was recorded. This fluorescence represents a semi-quantitative assessment of binding.

Test [3] deals with T2, Hybrid LAMP1 / glycan-deleted LAMP1 transmembrane proteins (Mus musculus, UniProt P11438, E181G/G176S/K100R/K180R/L93T/N177S/S175N/T102A/Y92H).
T2 construct: expressed in transfected cells; host or cells: 293-F (HEK293-derived), transient transfection
T2 sequence (P11438 with tags, fused parts or gaps Y92H/L93T/K100R/T102A/S175N/G176S/N177S/K180R/E181G): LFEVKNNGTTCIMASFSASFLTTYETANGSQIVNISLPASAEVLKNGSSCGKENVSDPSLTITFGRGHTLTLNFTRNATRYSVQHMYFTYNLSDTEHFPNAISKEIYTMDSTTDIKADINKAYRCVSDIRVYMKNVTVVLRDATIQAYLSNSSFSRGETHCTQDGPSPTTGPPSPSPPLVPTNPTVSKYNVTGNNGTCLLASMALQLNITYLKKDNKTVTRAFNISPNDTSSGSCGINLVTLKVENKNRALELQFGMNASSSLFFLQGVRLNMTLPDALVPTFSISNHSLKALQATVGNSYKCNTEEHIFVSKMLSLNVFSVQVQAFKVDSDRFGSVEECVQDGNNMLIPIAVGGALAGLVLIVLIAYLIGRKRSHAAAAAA
Described as above. Particulars: pXL6041 mLAMP1_hseq6-11_ΔGYQTI. Details: species or system human/mouse. The protocol: as §1, §2

For test [4], the system named is Hybrid LAMP1 / glycan-deleted LAMP1 transmembrane proteins. Described as above. Also on record: species or system human/mouse. Particulars: pXL6012 LAMP1_mseq1_ΔGYQTI; Table 18. The protocol: as §1, §2
For test [5], the target named is T3, LAMP1 in FFPE colon adenocarcinoma PDX CR-LRB-010P and human breast carcinoma (Homo sapiens, UniProt P11279).
T3 construct: from tissue; host or cells: human tumoral and non-tumoral tissue sections and PDX tumour sections (frozen-OCT, AFA, FFPE)
T3 sequence (P11279 29-417): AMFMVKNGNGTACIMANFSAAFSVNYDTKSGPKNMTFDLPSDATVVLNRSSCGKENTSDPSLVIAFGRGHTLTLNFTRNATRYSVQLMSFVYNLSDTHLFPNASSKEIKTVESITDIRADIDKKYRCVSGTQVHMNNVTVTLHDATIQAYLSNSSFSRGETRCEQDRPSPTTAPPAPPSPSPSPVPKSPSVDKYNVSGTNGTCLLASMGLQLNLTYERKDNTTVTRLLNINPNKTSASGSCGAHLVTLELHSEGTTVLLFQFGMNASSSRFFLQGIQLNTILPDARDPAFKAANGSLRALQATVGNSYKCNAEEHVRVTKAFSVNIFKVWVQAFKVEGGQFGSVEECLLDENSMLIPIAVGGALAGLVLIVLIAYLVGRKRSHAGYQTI
Kind of test: IHC on FFPE tumor tissue, LAMP1 membrane reinforcement. Particulars: FFPE samples. An excerpt:
IHC analysis of tumor tissues from biobanks or from hospitals before or during patient treatment is routinely done with formalin-fixed paraffin-embedded (FFPE) samples. […] One of the reasons is probably the effect of the formalin fixative combined to the complexity of the protein. Samples processed in frozen OCT or AFA are not routinely prepared in hospitals. Therefore, there is a need to have a mAb that would allow complete and fast coverage of the FFPE tumor biobanks and hospital samples.
Rabbit polyclonal antibodies generated with peptides described in example 17.1.1 were tested by IHC on FFPE sample of colon adenocarcinoma patient derived xenograft CR-LRB-010P and human breast carcinoma. After antigen retrieval procedure and endogen biotins blocking steps, slides were incubated with the primary anti-antibody for 1 hour at 24° C. Negative controls were performed by omission of the primary antibody. The biotin free anti-rabbit UltraMap™ horseradish peroxidase (HRP) conjugate (760-4315, Ventana Medical Systems, Inc, USA) was used as secondary antibody system according to manufacturer's recommendations. A couterstaining step was done with hematoxylin (760-2037, Ventana Medical Systems, Inc, USA) and bluing reagent was applied (760-2037, Ventana Medical Systems, Inc, USA). Stained slides were dehydrated and coverslipped with cytoseal XYL (8312-4, Richard-Allan Scientific, USA).
As the same manner as in example 17.1.2, IHC screening was performed with the hybridoma supernatant to identify mouse monoclonal antibody showing LAMP1 membrane reinforcement on FFPE sample of colon adenocarcinoma patient derived xenograft CR-LRB-010P. The biotin free anti-mouse UltraMap™ horseradish peroxidase (HRP) conjugate (760-152, Ventana Medical Systems, Inc, USA) was used as secondary antibody system according to manufacturer's recommendations.

Where [6] appears, read: read-out: EC50 (nM) Loop1-2: hLAMP1 Loop3-4: mLAMP1.
Setting [7] is: read-out: EC50 (nM) Loop1-3: hLAMP1 Loop4: mLAMP1.

A word on the EC50: it is the concentration needed to bring the measured effect to its halfway point.

Read-outs that look alike come from different tables or passages of the source.

Hybrid LAMP1 / glycan-deleted LAMP1 transmembrane proteins, sequence (as listed by the source, stated change not applied): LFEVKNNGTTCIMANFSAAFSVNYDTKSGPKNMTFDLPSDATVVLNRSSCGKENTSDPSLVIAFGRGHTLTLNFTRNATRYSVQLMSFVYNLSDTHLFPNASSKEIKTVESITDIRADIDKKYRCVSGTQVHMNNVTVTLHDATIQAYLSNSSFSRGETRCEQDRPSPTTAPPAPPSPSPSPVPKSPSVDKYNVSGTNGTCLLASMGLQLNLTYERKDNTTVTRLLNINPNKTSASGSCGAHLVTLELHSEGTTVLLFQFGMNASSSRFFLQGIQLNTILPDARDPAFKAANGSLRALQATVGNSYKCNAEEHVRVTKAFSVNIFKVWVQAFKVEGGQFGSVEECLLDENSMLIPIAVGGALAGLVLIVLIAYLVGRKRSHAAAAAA

B1: MAb1: murine monoclonal anti-LAMP1 antibody, VH SEQ ID NO: 1, VL SEQ ID NO: 5 (antibody, V domains shown)
VH: QVQLQQSGAELVKPGASVKMSCKASGYIFTNYNIHWVKKSPGQGLEWIGAIYPGNGDAPYSQKFKDKATLTADKSSSTTYMQLSRLTSEDSAVYYCVRANWDVAFAYWGQGTLVSVSA
VL: DIQMTQSPPSLSASLGGKVTITCKASQDIDRYMAWYQDKPGKGPRLLIHDTSTLQPGIPSRFSGSGSGRDYSFSISNLEPEDIATYYCLQYDNLWTFGGGTKLEIK
modifications: Antibody Fragment; antibody fragment
On to B1, for which, in test [1], the “EC50 (nM) Loop1-2: mLAMP1 Loop3-4: hLAMP1” value was “No binding”. In addition, the concentration for a half-maximal effect (EC50) came to 0.18 nM in test [1] (setting [6]), 0.16 nM in test [1] (setting [7]) and 0.15 nM in test [1] (read-out: EC50 (nM) Loop1: mLAMP1 Loop2-4: hLAMP1). The Binding call was “No binding” in test [2] (Table 17 Experiment no1), “No binding” in test [2] (Table 17 Experiment no2), “Binding” in test [3] (Table 17 Experiment no1) and “binding” in test [3] (Table 17 Experiment no2). Besides, the Mean fluorescence in test [2] (Table 17 Experiment no1) is 6; in test [2] (Table 17 Experiment no2), 2; in test [3] (Table 17 Experiment no1) it was 680; in test [3] (Table 17 Experiment no2), 211; in test [4] it was 1027. Further, the “LAMP1 membrane reinforcement in FFPE format by IHC” value in test [5] was “can not lead to the detection of LAMP1 reinforcement in FFPE format”.

B2: MAb2: murine monoclonal anti-LAMP1 antibody, VH SEQ ID NO: 8, VL SEQ ID NO: 12 (antibody, V domains shown)
VH: QVQLQQSAAELARPGASVKMSCKASGYTFTSYTMHWVKQRPGQGLEWIGYFNPSSGYPEYNQKFKDKTTLTADKSSNTAFIQLNSLTSEDSAVYYCSRGYYYGSRGYALDFWGQGASVTVSS
VL: NIVLTQSPVSLAVSLGQRATISCRASESVDINGNTFMHWYQQKPGQSPKLVIYAASNIESGVPARFSGSGSSTDFTFTIDPVEADDVATYYCQQNIEDPWTFGGGTKVEIK
modifications: antibod fragment; antibody fragment
B2: in test [1], the “EC50 (nM) Loop1-2: mLAMP1 Loop3-4: hLAMP1” value is “No binding”. The “EC50 (nM) Loop1: mLAMP1 Loop2-4: hLAMP1” value in test [1] is “No binding”. Moreover, the EC50 in test [1] (setting [6]) and in test [1] (setting [7]) was 0.25 nM in each case. In addition, the Binding call is listed as “No binding” in test [2] (Table 17 Experiment no1), “No binding” in test [3] (Table 17 Experiment no1) and “Low binding” in test [4]. For the same molecule, the Mean fluorescence in test [2] (Table 17 Experiment no1) is 28; in test [3] (Table 17 Experiment no1), 28; in test [4] it was 105. Also, the “LAMP1 membrane reinforcement in FFPE format by IHC” value in test [5] is reported as “can not lead to the detection of LAMP1 reinforcement in FFPE format”.
